Test results from patent US20260285956 (published 2026).

B1: ACI-7071-704H9-Ab1 (antibody, V domains shown)
VH: EVQLVESGGDLVKPGGSLKLSCAASGFTFANYAMSWIRQTPEKRLEWVATISGGGLYINYPANLKGRFTISRDNAKNNLYLQMSHLKSEDTAMYYCVKDRGQNWSWFAYWGQGTLVTVSA
VL: QLVLTQSSSASFSLGASAKLTCTLSSQHSTYTIEWYQQQPLKPPKYVMELEKDGSHSTGDGIPDRFSGSSSGADRYLSISNIQPEDEAIYICGVGDTIKEQFVYVFGGGTKVTVL
B2: ACI-7071-707A6-Ab1 (antibody, V domains shown)
VH: EVQLVESGGVLVKPGGSLKLSCAASGFIFSSFSMSWVRQNPEKRLEWVATISAAGRYIYYPDNVKGRFTISRDNAKNNLYLYMSHVRSEDTAIYYCVKDRGLNWSWFAYWGQGTLVTVSA
VL: QLVLTQSSSASFSLGASAKLTCTLSSQHSTYTIEWYQQQPLKPPKYVMELKKDGSHSTGDGIPDRFSGSSSGADRYLSISDIQPEDEAVYICGVGDTIKEQFVYVFGGGTKVTVL
B3: ACI-7071-810H12-Ab1 (antibody, V domains shown)
VH: QVQLQQSGAELVRPGASVKLSCKALDYTFTDYEMHWVKQTPVHGLEWIGAVHPRSGGTVYNQRFRAKATLTADKSSSTAFIELSSLTSEDSAVYFCTYYGYDEIYWGQGTLVTVSA
VL: DVVMTQISFSLPVSLGDQASISCRSSQSLVHSDGTTYLHWYLQKPGQSPKLLIYKVSNRFSGVPDRFSGSGSGTDFTLKISRVEAEDLGVYFCSQSTHAPYTFGGGTKLEIK
B4: ACI-7071-801H1-Ab1 (antibody, V domains shown)
VH: EVQLQQSGPELVKPGASVKISCKTSGYTFTEYTMHWVKQSHGQSLEWIGGIHPNNGGTIYNQKFKGRATLTVDKSSSTAYMEFRSLTSDDSAVYYCASPCWGQGTSVTVSS
VL: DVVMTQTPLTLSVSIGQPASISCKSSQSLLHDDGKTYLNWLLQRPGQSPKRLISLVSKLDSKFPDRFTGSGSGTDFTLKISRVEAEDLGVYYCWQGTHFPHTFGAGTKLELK
B5: ACI-7071-806H5-Ab1 (antibody, V domains shown)
VH: DVKLEDSGGGLVQPEGSMKLSCVASGFIFSDAWMAWVRQSPEKGLEWVAEIRGRASSHATYYAESVKGRFTISRDDSKSSVYLQMNSLRAEDTGVYYCTRGVNYWGQGTALTVSS
VL: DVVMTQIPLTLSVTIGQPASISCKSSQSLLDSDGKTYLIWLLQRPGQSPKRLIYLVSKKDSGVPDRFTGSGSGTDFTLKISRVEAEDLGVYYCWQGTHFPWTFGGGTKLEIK

These binders were tested against soluble TDP-43 (human) (assay: SPR).
soluble TDP-43 (human), sequence (chain, as listed by the source): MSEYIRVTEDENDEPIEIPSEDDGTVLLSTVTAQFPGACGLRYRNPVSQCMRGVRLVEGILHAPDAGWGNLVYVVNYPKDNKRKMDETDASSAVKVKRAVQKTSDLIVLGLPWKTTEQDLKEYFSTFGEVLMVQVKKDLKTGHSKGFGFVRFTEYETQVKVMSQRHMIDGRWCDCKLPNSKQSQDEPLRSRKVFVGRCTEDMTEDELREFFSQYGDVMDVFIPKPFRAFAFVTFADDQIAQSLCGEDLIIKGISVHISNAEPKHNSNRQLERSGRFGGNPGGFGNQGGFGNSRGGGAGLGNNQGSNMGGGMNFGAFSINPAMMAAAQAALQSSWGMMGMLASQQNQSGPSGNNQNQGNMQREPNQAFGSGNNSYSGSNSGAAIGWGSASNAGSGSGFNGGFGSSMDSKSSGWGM
B1 showed a Kd of 0.23 nM.
B2 was tested, and the Kd was 0.11 nM.
With B3 the Kd was 0.38 nM.
Binder B4 has a Kd of 0.75 nM.
Binder B5 has a Kd of 0.2 nM.
